Columns and labels:
[1] = molecular target: arrayed peptide library (198 peptide mixtures with a central fixed Ser/Thr phosphorylation site, degenerate flanking positions and a carboxy-terminal biotin tag)
[2] = molecular target: T1, consensus peptide substrate eEF2p (Ac-RKKYKFNEDTERRRFL)
T1 chain: RKKYKFNEDTERRRFL

B1: eEF2 kinase (Elongation Factor 2 Kinase) (protein)
chain: MADEDLIFRLEGVDGGQSPRAGHDGDSDGDSDDEEGYFICPITDDPSSNQNVNSKVNKYYSNLTKSERYSSSGSPANSFHFKEAWKHAIQKAKHMPDPWAEFHLEDIATERATRHRYNAVTGEWLDDEVLIKMASQPFGRGAMRECFRTKKLSNFLHAQQWKGASNYVAKRYIEPVDRDVYFEDVRLQMEAKLWGEEYNRHKPPKQVDIMQMCIIELKDRPGKPLFHLEHYIEGKYIKYNSNSGFVRDDNIRLTPQAFSHFTFERSGHQLIVVDIQGVGDLYTDPQIHTETGTDFGDGNLGVRGMALFFYSHACNRICESMGLAPFDLSPRERDAVNQNTKLLQSAKTILRGTEEKCGSPQVRTLSGSRPPLLRPLSENSGDENMSDVTFDSLPSSPSSATPHSQKLDHLHWPVFSDLDNMASRDHDHLDNHRESENSGDSGYPSEKRGELDDPEPREHGHSYSNRKYESDEDSLGSSGRVCVEKWNLLNSSRLHLPRASAVALEVQRLNALDLEKKIGKSILGKVHLAMVRYHEGGRFCEKGEEWDQESAVFHLEHAANLGELEAIVGLGLMYSQLPHHILADVSLKETEENKTKGFDYLLKAAEAGDRQSMILVARAFDSGQNLSPDRCQDWLEALHWYNTALEMTDCDEGGEYDGMQDEPRYMMLAREAEMLFTGGYGLEKDPQRSGDLYTQAAEAAMEAMKGRLANQYYQKAEEAWAQMEE
phosphorylation of peptide library (radiolabel incorporation) [1]: The kinase was able to efficiently phosphorylate peptides within the library
fold increase in activity as compared to peptide MH-U [2]: 30 to 35 fold increase in activity
phosphorylation at a single substrate concentration (100 µM) [2]: both peptides are efficiently phosphorylated by their respective kinases
